Test results published in patent publication US20070129307A1 (UNIVERSITY OF BRITISH COLUMBIA, published 2007).

Tests used:
[1] = biological target: T1, human MHC class I molecule HLA-A*0201 (human); experiment: peptide/HLA-A2 complex stability on T2 cells after peptide removal and emetine, 37 C, anti-HLA-A2 flow cytometry, normalized to CMV/HLA-A2
T1 construct: MHC class I molecule on the surface of T2 cells; also called HLA-A2; HLA-A201

[2] = biological target: T2, murine MHC class I molecule, H-2Kd (mouse, UniProt P01887 21-119; P01902 22-368, limits assumed); experiment: MHC class I stabilization assay on TAP-deficient RMAS-Kd cells, anti-H-2Kd-FITC, flow cytometry (background without peptide 6.07%)
T2 construct: whole, on cells; MHC class I molecule on the surface of RMAS-Kd cells
T2 sequence (MHC heavy, looked up): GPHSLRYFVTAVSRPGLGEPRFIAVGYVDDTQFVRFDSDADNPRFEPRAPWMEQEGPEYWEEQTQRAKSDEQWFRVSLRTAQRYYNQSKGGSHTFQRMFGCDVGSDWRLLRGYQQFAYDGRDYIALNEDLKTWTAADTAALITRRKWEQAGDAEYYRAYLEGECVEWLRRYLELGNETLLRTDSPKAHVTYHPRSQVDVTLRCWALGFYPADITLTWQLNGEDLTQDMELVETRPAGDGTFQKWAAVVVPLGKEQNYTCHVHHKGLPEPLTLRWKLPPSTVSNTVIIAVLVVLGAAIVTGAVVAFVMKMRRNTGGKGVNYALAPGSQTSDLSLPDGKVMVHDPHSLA
T2 sequence (b2m, looked up): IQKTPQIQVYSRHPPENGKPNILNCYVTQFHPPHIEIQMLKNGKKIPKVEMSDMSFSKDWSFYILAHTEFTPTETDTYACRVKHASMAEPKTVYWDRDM

[3] = biological target: T1, human MHC class I molecule HLA-A*0201; experiment: HLA-A2 stabilization on T2 cells loaded with 50 ug/ml peptide, anti-HLA-A2 (BB7.2) flow cytometry, MFI relative to CMV/A2

Row | Binder | % of peptide/HLA-A2 complex dissociated in 4 hours [1] [%] | % of RMAS-Kd cells staining positive for surface H-2Kd [2] [%] | relative HLA-A2 surface expression (% of CMV/A2 peptide binding) [3] [%]
1 | RLLPLLALL (Peptide derived from the mouse insulin protein) [TV3] |  | 70.1 | 
2 | KYQAVTTTL (also called negative control peptide TUM) [TUM] |  | 66.5 | 
3 | ALWMRLLPL [Insulin2] | ~20 |  | > 80
4 | FLIVLSVAL [IAPP9] | < 5 |  | 
5 | LLPPLLEHL [IA-2(180)] |  |  | > 80
6 | RLLCALTSL [IGRP293] | ~20 |  | 
7 | KLPAVLLIL [murine IAPP precursor peptide mTV1] |  | 64.2 | 
8 | KYPAVLLIL (Modified version of TV1 with leucine to tyrosine at position 2; also called MTV2) [TV2] |  | 58.5 | 

Now from value to binder:

Row | % of peptide/HLA-A2 complex dissociated in 4 hours [1] [%] | % of RMAS-Kd cells staining positive for surface H-2Kd [2] [%] | relative HLA-A2 surface expression (% of CMV/A2 peptide binding) [3] [%] | Binder
9 | < 5 |  |  | FLWSVFMLI [IGRP152]
10 |  |  | > 80 | SLAAGVKLL [IA-2(482)]
11 | < 5 |  | > 80 | SLSPLQAEL [IA-2(172)]
12 | ~20 |  | > 80 | GMAELMAGL [Phogrin331]
13 | < 5 |  |  | KLQVFLIVL (also called HTV1; HTV-1) [IAPP5]
14 | < 5 |  |  | FLFAVGFYL [IGRP215]
